Test system: MS2 coat protein
Assay: apparent KD of MS2 coat protein; designed switch direction (-1 OFF switch, 1 ON switch): -1; higher = weaker reporter binding
How it was run: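 Stalled E. coli RNA polymerase transcribed designed RNA switches on Illumina chips, which were then titrated with SNAP-549-labelled MS2 coat protein, doubling from 0.7 or 1.5 nM to 3 µM. Steps lasted from 0.8–1.5 h at the lowest concentration to 10–20 min at the highest. The apparent KD is each design's median over clusters of curve-fitted normalised fluorescence.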

[1] = input ligand: microRNA oligo, concentration not stated
[2] = Eterna round: R95, input ligand: FMN 200 uM
[3] = Eterna round: R95, input ligand: microRNA oligo, concentration not stated
[4] = Eterna round: R95, input ligand: none

| Sequence | apparent KD of MS2 coat protein (input ligand: FMN 200 uM) [nM] | apparent KD of MS2 coat protein (input ligand: none) [nM] | apparent KD of MS2 coat protein [1] [nM] | apparent KD of MS2 coat protein [2] [nM] | apparent KD of MS2 coat protein [3] [nM] | apparent KD of MS2 coat protein [4] [nM] |
| --- | --- | --- | --- | --- | --- | --- |
| CGAGGUAGAGGAUAUACGUGGAUGUAAAUUCAUGUUAAUCUACAUGAGGAUCACCCAUGUAGAAGGCUAUAGCG [JR_Ex2_Sub076] (Eterna round: R97, puzzle: Exclusion 2) | 27.8 | 30.6 |  |  |  |  |
| CCUUUGUGAGGAUAUCGUUGGCCAGACAUGAGGAUCACCCAUGUGGCUGGAACUCAUGGACGAGAAGGCACCUCUU [Eternabot (L2) Solution 52] (Eterna round: R97, puzzle: Exclusion 5) | 338 | 399 |  |  |  |  |
| AAAACUGGUGUUAGGAUAUUCCUAGGAAAGCUUGGGAAGAAGGGACAUGAGGAUCACCCAUGUCCAGUGAUCAG [Eternabot (Original) Solution 19] (Eterna round: R97, puzzle: Brourd's mod of Exclusion 4) | 19.1 | 21.6 |  |  |  |  |
| ACUCCUCCUGUUAGGAUAUGCAUCGGGCUUCCGCAGCAGAAGGAACAUGAGGAUCACCCAUGUCAAAUAAAAUC [Inxebexe] (Eterna round: R96, puzzle: Brourd's mod of Exclusion 4) | 153 | 26.9 | 20.7 |  |  |  |
| GAUCACUGAGGAUAUACACAGAUACAAAGUAUCUGACGGUGACAUGAGGAUCACCCAUGUAGAAGGCAGAGGUC [Omei Ex2 B2] (Eterna round: R97, puzzle: Exclusion 2) | 360 | 696 |  |  |  |  |
| CUAAAUCAUGUAGGAUAUGCGUAGCGAAGCUAUGCAGAAGGACAUGAGGAUCACCCAUGUUCUUCCGUCUGCGUACAGACGGAA [Mat - Exclusion NG 1 - Mod of JL - D29] (Eterna round: R96, puzzle: Exclusion NG 1) | 337 | 38.2 | 29.1 |  |  |  |
| GAAAACCGGUGAGGAUAUUUAUAAUAGAGCUUUAUGAUAUACAUGAGGAUCACCCAUGUUACUUUAAAGAAGGCAUCGGAAAAG [Mat - Exclusion NG 2 - Mod of JL - D94] (Eterna round: R96, puzzle: Exclusion NG 2) | 19.1 | 18.9 | 12.5 |  |  |  |
| UAAUAGGCAGGAUAUACAUGAGGAUCACCCAUGUAAAUUUUUCGUUUAACUUGAAUGUGUAGAAGGGCCAUAAA [Ex3 #53] (Eterna round: R97, puzzle: Exclusion 3) | 20.6 | 22.6 |  |  |  |  |
| AAAUAAUAGAUAAAAUAAAACAUGAGGAUCACCCAUGUAGGCAGAUGAGGGUGAAACAAGCUUUUUGCUCGUCUUAU (puzzle: Sensor v3, turn-off variant 1) |  |  |  | 63.9 | 477 | 75.1 |
| CCGGAAAGGAAGGAUAUGCUAGACGAAAGUCUAGCAGAAGGUCCUACAUGAGGAUCACCCAUGUGGUCCUCCGG [Eli x6 4.06] (Eterna round: R97, puzzle: Exclusion 6) | 298 | 1470 |  |  |  |  |
| GGUGCGUAUGUGAGGAUAUGCUGGUCCUUGGCUCGGCAGAAGGCACAUGAGGAUCACCCAUGUGGUGUCGUACA [salish99_Bmod_ex4_072] (puzzle: Brourd's mod of Exclusion 4) |  |  |  |  | 73.5 |  |
| GUAGAGUCAGGAUAUACAAGAUCGAUAGAUCAAAGACCCAUACAUGAGGAUCACCCAUGUAGAAGGGACUCUAC [Mat - Exclusion 2 - Eli Mod - D11] (Eterna round: R97, puzzle: Exclusion 2) | 23 | 18.7 |  |  |  |  |
| UUGUUACAUGAGGAUCACCCAUGUGAGGAUAUGAGGGUUAGCUUAAAUGGGCUGACUUUCAGAAGGCACAUGAA [JR_Ex1_Sub058] (Eterna round: R97, puzzle: Exclusion 1) | 327 | 235 |  |  |  |  |
| CUGUUUUCCGCAGGAUAUGCUCCUCCAUUAUUAGCAGAAGGGCGUUGAACAUGAGGAUCACCCAUGUAUGUAAUUGAUUAUUGC [JR_ExcNG1_Sub071] (Eterna round: R96, puzzle: Exclusion NG 1) | 54.3 | 36.3 | 26.3 |  |  |  |
| CCUCUACAUGAGGAUCACCCAUGUGAGGAUAUAGACCGGCCUAACGCGGGCUCGGGAGCUAGAAGGCACAUAGA [EX1 C.7] (Eterna round: R97, puzzle: Exclusion 1) | 70.8 | 21.8 |  |  |  |  |
| GCCGUGUUAGGAUAUCGCUCGACGAAUAGUUGUCGGAGGAACGAGAAGGAACAUGAGGAUCACCCAUGUGUCAC [Eternabot (L1) Solution 33] (Eterna round: R97, puzzle: Exclusion 4) | 57.5 | 21.4 |  |  |  |  |
| UCAGACAUGAGGAUCACCCAUGUGUGACCCUCCUGUCUCAGUCAGGAUAUACUUUUUCAAACUUAGUAGAAGGGACAACAAAAC [Oronerused] (Eterna round: R96, puzzle: Exclusion NG 3) | 37.8 | 61.4 | 27.8 |  |  |  |
| CUUCGACAUGAGGAUCACCCAUGUCAGGAUAUUGUGUAUCUGGUUUUUUACAGAUAGACAAGAAGGGAUGUGUU [LRO-Excl1-01] (puzzle: Exclusion 1) |  |  |  |  | 25.2 |  |
| CUGACGGCAGGAUAUACAUGAGGAUCACCCAUGUAAAUUUUUCGUUUAACUUGAAUGUGUAGAAGGGCCCAACC [Ex3 #79] (Eterna round: R97, puzzle: Exclusion 3) | 19.6 | 21.5 |  |  |  |  |
| AGUAACCGUCACGAAAGUGAUGGUUACAUAAGCAUAUGUACAUGAGGAUCACCCAUGUCCUCAACUGCUCGUUUUAU [Sensor 3 - 56] (puzzle: Sensor v3, turn-off variant 2) |  |  |  | 292 | 612 | 349 |
| UUGUUAUAUGUAGGAUAUGCAUAUUAUUAUUAUGCAGAAGGACAUGAGGAUCACCCAUGUGUAUUGUUAUUAUAUAUUAUAUAU [Title] (Eterna round: R96, puzzle: Exclusion NG 1) |  |  | 16.5 |  |  |  |
| UUUUGUCGUGACAUGGGUGACAUGAGGAUCACCCAUGUUACAAGCUUGUUGCUCGUCUUAUAAUUAACCCAUGUCAU [LRO Sensor-off var1-18 mod of Stov1-13-A1 by Brourd] (Eterna round: R97, puzzle: Sensor, turn-off variant 1) | 44.7 | 49.1 |  |  |  |  |
| ACUCCUCCUGUUAGGAUAUGCAUCGGGCUUCCGCAGCAGAAGGAACAUGAGGAUCACCCAUGUCAAAUAAAAUC [Inxebexe] (puzzle: Brourd's mod of Exclusion 4) |  |  |  |  | 18.9 |  |
| UACACUGCAUGAGGAUCAAACAUGAGGAUCACCCAUGUAUAGCAGGCUUUUUGUACGUCUUAUAAUUAUGUAGUGUA [Electric Eye 16 - Jieux - Sensor, turn-off variant 1] (Eterna round: R97, puzzle: Sensor, turn-off variant 1) | 15.9 |  |  |  |  |  |
| GCUGCACAUGUAGGAUAUCUGCACGAUUAGUGCAGAGAAGGACAUGAGGAUCACCCAUGUAGAUCAGCAGCAAUUAAUUUAAUU [ENG1/6-A1] (Eterna round: R96, puzzle: Exclusion NG 1) | 232 | 400 | 241 |  |  |  |
